In patent US8703915B2, “Mutant proteins and methods for producing them” (Heptares Therapeutics Limited, priority 2009, dated 2014):
Entries after “also recorded” stand apart in the source; their conditions may differ.

Legend:
A2A receptor [1] = test: Thermostability of A2A receptor in NECA agonist-bound state, solubilised in DDM; type: physicochemical, human
Method: (§1) In order to stabilise an agonist-bound conformation, a systematic Alanine-scan was performed in order to identify mutations that may stabilise the A2A receptor bound to its full agonist NECA. In this A2A agonist-bound study, L2.46 (L48A) is the most stabilising single mutant. When NECA is bound to the solubilised receptor, removing the L48 side chain (in A2A-L48A) dramatically increases the thermostability of the ligand-receptor complex resulting in an increase of 14° C. over the wild type receptor in the detergent DDM (FIG. 5a). […] We evaluated the signalling property of the A2A receptor by over-expressing the receptor in CHO cells. A2A agonist stimulation triggers the signal transduction through the Gs-trimeric complex and increases the intracellular cAMP level. The increase in intracellular cAMP can be detected by and quantified by using an anti-cAMP Mab antibody competition assay. […] However the signalling efficacy is reduced to 30% (FIG. 6).
(§2) A2AR-(2-316) expression was carried out by using the pRG/III-hs-MBP E. coli expression vector and DH5α cells. Cells were grown at 37° C. in 2 L flasks containing 500 mL of 2×TY medium supplemented with Ampicillin (100 μg/mL) and glucose (0.2% w/v). At OD600≈0.7, IPTG and theophylline were added at final concentrations respectively of 0.5 mM and 100 μM, and the temperature was reduced to 20° C. After 22 to 24 hours, cells were harvested in aliquots of 14 mL, centrifuged for 30 min and stored at −20° C. Both 5HT2C and M4 receptors were transiently expressed in HEK293T cells using GeneJuice transfection reagent used according to the manufacturers guidelines.
An aliquot of E. coli cells expressing wild type or mutant A2AR-(2-316) (14 mL) was thawed on ice and cells were resuspended in 500 μL of buffer A (50 mM Tris HCl mM/pH 7.4; 0.4 M NaCl, 250 μg/mL lysozyme (Sigma), 1 mg/mL DNAse I (Sigma), supplemented with complete EDTA-free Protease inhibitor cocktail (Roche)) and incubated 1 hour at 4° C. Samples were then sonicated 1 min at 4° C. using a cup-horn sonicator. […]

A2A receptor [2] = molecular target: T1, A2A receptor (Homo sapiens, UniProt P29274, L48A); test: cAMP functional assay (HTRF), NECA stimulation of CHO cells over-expressing A2A receptor; type: cell-based; details: cAMP, relative to A2A-WT
T1 construct: transfected with 100 ng of pcDNA-3-A2A(2-316) pre-incubated with 0.3 μL of GeneJuice; expressed in transfected cells; host or cells: CHO cells, transient
Method: as §1
(§3) This assay takes advantage of Homogeneous Time-Resolved Fluorescence (HTRF) using cAMP labeled with the dye d2 in presence of an anti-cAMP Mab labeled with Cryptate. The method is based on a competitive immunoassay between cAMP produced by cells and the cAMP labeled with the dye d2. CHO cells were grown using Glutamax Ham's F12, 10% FBS in 96-well plates, clear bottom and Black wall (Costar). Cells were seeded at a density of 12500 cells per well, grown overnight, washed with PBS and then transfected with 100 ng of pcDNA-3-A2A(2-316) pre-incubated with 0.3 μL of GeneJuice (Novagen) per well. After 48 hours of receptor expression, the medium was removed, the cells were washed in PBS then stimulated by using different NECA concentrations, in the presence of Rolipram (50 μM) and Adenosine deaminase in a total volume of 50 μL for 30 minutes. Dilution was realised in Hamf's F12/cAMP-d2 conjugate according to the manufacturer protocol, without serum. […] The plate was incubated at room temperature for 1 hour and then read using the Pherastar 96-well time-resolved fluorescence plate reader (Ex 340 nm; Em 665/620 nm).

A2A receptor [3] = test: as above; type: cell-based, human; details: intracellular cAMP, CHO cells
Method: as §1, §3

A2A receptor [4] = test: Thermostability of A2A receptor in ZM241385 antagonist-bound state, solubilised in DDM; type: physicochemical, human; details: ZM antagonist
Method: as §1
A2AR-(2-316) expression was carried out by using the pRG/III-hs-MBP E. coli expression vector and DH5α cells. Cells were grown at 37° C. in 2 L flasks containing 500 mL of 2×TY medium supplemented with Ampicillin (100 μg/mL) and glucose (0.2% w/v). At OD600≈0.7, IPTG and theophylline were added at final concentrations respectively of 0.5 mM and 100 μM, and the temperature was reduced to 20° C. […]

M4 muscarinic receptor = molecular target: T2, M4 muscarinic receptor (Homo sapiens, UniProt P08173, L74A); test: Thermostability of M4 muscarinic receptor bound to antagonist NMS; type: physicochemical; details: antagonist NMS bound, data not shown
T2 construct: made in house; host or cells: HEK293T cells, transient
T2 sequence (P08173 1-479 L74A): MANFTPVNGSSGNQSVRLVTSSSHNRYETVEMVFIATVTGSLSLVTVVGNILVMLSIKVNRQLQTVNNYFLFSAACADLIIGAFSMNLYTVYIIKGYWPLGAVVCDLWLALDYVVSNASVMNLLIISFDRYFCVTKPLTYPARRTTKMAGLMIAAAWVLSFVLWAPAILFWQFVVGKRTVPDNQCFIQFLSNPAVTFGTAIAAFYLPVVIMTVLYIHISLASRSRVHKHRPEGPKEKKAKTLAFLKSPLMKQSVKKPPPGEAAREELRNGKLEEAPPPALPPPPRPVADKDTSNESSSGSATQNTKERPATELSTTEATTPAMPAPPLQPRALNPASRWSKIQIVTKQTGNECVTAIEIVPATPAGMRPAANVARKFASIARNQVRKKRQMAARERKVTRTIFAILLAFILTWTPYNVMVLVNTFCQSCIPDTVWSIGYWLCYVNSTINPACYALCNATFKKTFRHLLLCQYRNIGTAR
Method: In order to stabilise the M4 muscarinic receptors in antagonist conformation, a systematic alanine-scan was performed to identify mutations that stabilise receptors bound to the muscarinic antagonist, NMS. […] However, L71A (three residues N-terminal of the L2.46) was identified as a stabilising mutation. This mutation increases the Tm of this receptor by about 2° C. (FIG. 8a).
as §2
(§4) Transiently transfected mammalian cells expressing M4 were harvested about 40 hours post transfection and the receptors were solubilised in 50 mM Tris pH 7.5/250 mM NaCl/1% DDM/EDTA free protease inhibitor mix for 1 hour rotating at 4° C. The solubilised lysate was then cleared by centrifugation at 13000 rpm for 15 minutes at 4° C. The solubilised receptors were then purified on Ni-NTA beads and eluted with 100 mM histidine. The eluted receptor was used in radioligand binding assay. Thermostability of M4 was measured using 25 μL of purified receptor mixed with 95 μL of 12 nM [^3H]-NMS (final concentration of 10 nM). The sample was incubated for 60 min at 4° C., then 30 min at the specified temperature and then 30 min at 4° C. Receptor bound and free radioligand were separated using a 96-well plate gel filtration assay.

OX2 receptor = test: Thermostability of OX2 receptor bound to antagonist EMPA; type: physicochemical, human; details: bound to antagonist EMPA
Method: as §4
A tandem alanine and leucine scanning mutagenesis strategy was used to identify mutations that enhanced the thermostability of OX2 bound to the small-molecule antagonist EMPA.
Thermostability assays were preformed on partially purified receptors as described for M4, with the following amendments. Cell lysates were solubilised in 50 mM Tris pH7.4, 150 mM NaCl, 1% DDM supplemented with 1× complete EDTA free protease inhibitor cocktail (Roche). Radioligand binding reactions were set up using 1/10 volume eluted receptor mixed with 20 nM ^3H-EMPA (final concentration) per temperature point.

B1: A2A-L48A: human adenosine A2A receptor mutant, Leu 48 (L2.46) replaced by alanine (protein, UniProt P29274 1-412, looked up, variant L48A)
Adenosine receptor A2a: MPIMGSSVYITVELAIAVLAILGNVLVCWAVWLNSNLQNVTNYFVVSAAAADIAVGVLAIPFAITISTGFCAACHGCLFIACFVLVLTQSSIFSLLAIAIDRYIAIRIPLRYNGLVTGTRAKGIIAICWVLSFAIGLTPMLGWNNCGQPKEGKNHSQGCGEGQVACLFEDVVPMNYMVYFNFFACVLVPLLLMLGVYLRIFLAARRQLKQMESQPLPGERARSTLQKEVHAAKSLAIIVGLFALCWLPLHIINCFTFFCPDCSHAPLWLMYLAIVLSHTNSVVNPFIYAYRIREFRQTFRKIIRSHVLRQQEPFKAAGTSARVLAAHGSDGEQVSLRLNGHPPGVWANGSAPHPERRPNGYALGLVSGGSAQESQGNTGLPDVELLSHELKGVCPEPPGLDDPLAQDGAGVS
With B1 the Tm (A2A receptor [1]; NECA agonist-bound state (400 nM), solubilised in DDM) was 42.5±1.0 °C, the “increase in thermostability over the wild type receptor” value (A2A receptor [1]; NECA bound, detergent DDM) was 14 °C and the signalling efficacy (A2A receptor [2]) was 30%. For the same molecule, the pEC50 (A2A receptor [3]) was 8.10±0.39 and the antagonist binding (A2A receptor [4]) was “abolishes the binding of the antagonist; also recorded: no binding detected”.

B2: M4 L2.46: M4 muscarinic receptor with L2.46 residue mutated to alanine (protein, UniProt P08173 1-479, looked up, variant L74A)
Muscarinic acetylcholine …: MANFTPVNGSSGNQSVRLVTSSSHNRYETVEMVFIATVTGSLSLVTVVGNILVMLSIKVNRQLQTVNNYFLFSAACADLIIGAFSMNLYTVYIIKGYWPLGAVVCDLWLALDYVVSNASVMNLLIISFDRYFCVTKPLTYPARRTTKMAGLMIAAAWVLSFVLWAPAILFWQFVVGKRTVPDNQCFIQFLSNPAVTFGTAIAAFYLPVVIMTVLYIHISLASRSRVHKHRPEGPKEKKAKTLAFLKSPLMKQSVKKPPPGEAAREELRNGKLEEAPPPALPPPPRPVADKDTSNESSSGSATQNTKERPATELSTTEATTPAMPAPPLQPRALNPASRWSKIQIVTKQTGNECVTAIEIVPATPAGMRPAANVARKFASIARNQVRKKRQMAARERKVTRTIFAILLAFILTWTPYNVMVLVNTFCQSCIPDTVWSIGYWLCYVNSTINPACYALCNATFKKTFRHLLLCQYRNIGTAR
For B2, the “effect on thermal stability” value (M4 muscarinic receptor) was “does not change the thermal stability of this receptor significantly”.

B3: OX2WT: wild type human orexin 2 receptor (protein, UniProt O43614 1-444, looked up)
Orexin receptor type 2: MSGTKLEDSPPCRNWSSASELNETQEPFLNPTDYDDEEFLRYLWREYLHPKEYEWVLIAGYIIVFVVALIGNVLVCVAVWKNHHMRTVTNYFIVNLSLADVLVTITCLPATLVVDITETWFFGQSLCKVIPYLQTVSVSVSVLTLSCIALDRWYAICHPLMFKSTAKRARNSIVIIWIVSCIIMIPQAIVMECSTVFPGLANKTTLFTVCDERWGGEIYPKMYHICFFLVTYMAPLCLMVLAYLQIFRKLWCRQIPGTSSVVQRKWKPLQPVSQPRGPGQPTKSRMSAVAAEIKQIRARRKTARMLMIVLLVFAICYLPISILNVLKRVFGMFAHTEDRETVYAWFTFSHWLVYANSAANPIIYNFLSGKFREEFKAAFSCCCLGVHHRQEDRLTRGRTSTESRKSLTTQISNFDNISKLSEQVVLTSISTLPAANGAGPLQNW
B3 showed a Tm (OX2 receptor) of 28.47 °C.
